Legend:
FADD^DD [1] = biological target: FADD^DD (UniProt Q13158)
FADD^DD [2] = biological target: FADD^DD (UniProt Q13158); test: ITC
FADD^DD [3] = biological target: T1, FADD^DD (UniProt Q13158 97-181); test: cell-based or functional assay
T1 sequence: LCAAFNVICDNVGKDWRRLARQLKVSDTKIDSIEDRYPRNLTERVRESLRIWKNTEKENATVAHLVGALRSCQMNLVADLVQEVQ

FADD^DD [4] = biological target: T1, FADD^DD; test: ITC

NleB1^EHEC (enzyme)
Km for FADD^DD, glycosylation kinetics (FADD^DD [1]): 13 µM | Kd (FADD^DD [2]): 200 nM

B1: S286Y^SseK1 (enzyme)
chain: MIPPLNRYVPALSKNELVKTVTNRDIQFTSFNGKDYPLCFLDEKTPLLFQWFERNPARFGKNDIPIINTEKNPYLNNIIKAATIEKERLIGIFVDGDFFPGQKDAFSKLEYDYENIKVIYRNDIDFSMYDKKLSEIYMENISKQESMPEEKRDCHLLQLLKKELSDIQEGNDSLIKSYLLDKGHGWFDFYRNMAMLKAGQLFLEADKVGCYDLSTNSGCIYLDADMIITEKLGGIYIPDGIAVHVERIDGRASMENGIIAVDRNNHPALLAGLEIMHTKFDADPYYDGVCNGIRKHFNYSLNEDYNSFCDFIEFKHDNIIMNTSQFTQSSWARHVQ
Km for FADD^DD, glycosylation kinetics, fold worse than that of NleB1^EHEC (FADD^DD [3]): 4.4 fold | fold by which the Kd of NleB1^EHEC is better (FADD^DD [4]): ~6 fold

B2: N302Y^SseK2 (enzyme)
chain: MARFNAAFTRIKIMFSRIRGLISCQSNTQTIAPTLSPPSSGHVSFAGIDYPLLPLNHQTPLVFQWFERNPDRFGQNEIPIINTQKNPYLNNIINAAIIEKERIIGIFVDGDFSKGQRKALGKLEQNYRNIKVIYNSDLNYSMYDKKLTTIYLENITKLEAQSASERDEVLLNGVKKSLEDVLKNNPEETLISSHNKDKGHLWFDFYRNLFLLKGSDAFLEAGKPGCHHLQPGGGCIYLDADMLLTDKLGTLYLPDGIAIHVSRKDNHVSLENGIIAVNRSEHPALIKGLEIMHSKPYGDPYYDWLSKGLRHYFDGSHIQDYDAFCDFIEFKHENIIMNTSSLTASSWR
fold by which the Kd of NleB1^EHEC is better (FADD^DD [4]): ~472 fold

Reference: publication PMC8457375 (Chemical Science, 2021)
